What was measured:
B2M = assay: sgRNA screening for B2M knockout in LSCs (nucleofection, FACS); assay type: cell-based, human; details: Cas9 protein SEQ ID NO: 106, LSCs at passage 3, FACS after around 3 days
Method: Cells were cultured under these conditions for 24-48 hours at 37° C. in 5% CO2.
LSCs were nuclofected with selected gRNAs (Table 6) followed by FACS analysis / MACS separation.
After scraping the cells, the reaction was stopped by using cell culture medium containing 10% Serum and transferred to a falcon tube. After counting cells using Vi-cell 300′000 cells were prepared per reaction by transferring 300′000 cells in single tubes and centrifuged at 1000 rpm for 5 min. The supernatant was aspirated using manually pipetting to avoid cell loss and the cells were resuspended in the Stem cell nucleofector solution II (Lonza, Cat #VPH-5022). Resuspend cells in nucleofector solution immediately before adding the Cas9 RNP:sgRNA mixture. To obtain the nucleofection mixture, 5 µg high concentrated (≥5 µg/µl) Cas9 protein of SEQ ID NO: 106 (volume = 0.78 µl) was mixed with 19.5 µg sgRNA of Table 6 (volume = 12.2 µl) and incubated for 20 min at room temperature. […] The Cas9 protein-guideRNA complex was added to the cell suspension and transferred to the electroporation cuvette immediately. Cells were transfected using the nucelofector device (Lonza, Amaxa Nucleofector II) and program A023. After nucleofection cells were transferred from cuvette to one well of a 24 well synthemax coated plate containing pre-warmed LSC medium including 3 µM LATS compound and 10 µM Rock inhibitor Y-27632 (Nature 1997, vol. 389, pp. 990-994). Incubate LSCs in a 5% CO2 incubator for around 3 days until cells are 90% confluent.
LSCs were treated with TryLE®Express Enzym (ThermoFisher, Cat #12605010) for 15 minutes in 5% CO2 at 37° C. After scraping the cells, the reaction was stopped by using cell culture medium containing 10% Serum and transferred to a falcon tube for a centrifugation step (1000 rpm, 5 minutes). After aspirating the medium cells were resuspended in 200 µl FACS buffer (PBS/10%FBS).
(§1) To analyze the expression of B2M and HLA-ABC, 5 µl APC mouse anti-human β2-microglobulin antibody (Biolegend, Cat#316312) and 20 µl PE mouse anti-human HLA-ABC antibody (BD Bioscience, Cat # 560168) were added to the cell suspension and incubated for 30 minutes on ice.
Cells were washed 3 times after antibody labelling with FACS buffer and resuspended in 200 µl in FACS buffer (depending on the cell number).
FACS data were analyzed using BD FACSDiva software and FlowJo software.

human B2M = assay: CRISPR/Cas9-mediated deletion of B2M in HEK293 (lipofection, FACS); assay type: cell-based; details: lipofection of tracrRNA, gRNA and Cas9 mRNA; FACS after 72 h
Method: One day before transfection, 500′000 HEK293cells (ATCC, Manassas, VA) were plated in a 35 mm dish and grown in DMEM/10%FBS. The following day, cells were transfected with a mixture of tracrRNA-gRNA-Cas9 mRNA. A stock of 10 micromolar was prepared resuspending 20 nanomoles of gRNA and 20 nanomoles tracrRNA in 2000 microlitre 10 millimolar Tris buffer pH7.4 each.
The mixture was added drop wise to the culture dish in 2.5 ml DMEM/10%FBS medium. The transfection reagent alone represented the transfection negative control.
After 6 h incubation in 5% CO2 at 37° C. medium was replaced with fresh DMEM/10%FBS medium. After 72 h in a 5% CO2 incubator cells were prepared for FACS analysis. FACS analysis: HEK293 cells were treated with Accutase (ThermoFisher, Cat # A1110501) for 20 minutes in 5% CO2 at 37° C. The reaction was stopped by using cell culture medium containing 10% Serum and transferred to a falcon tube for a centrifugation step (1000 rpm, 5 minutes). After aspirating the medium cells were resuspended in 200 microlitre FACS buffer (PBS/10%FBS).
as §1, with “microlitre” for “µl”, “Cat #316312)” for “Cat#316312)”, “ice. Cells were washed 3 times after antibody labelling with FACS buffer and resuspended in 500 microlitre in FACS buffer.” for “ice.”
Each sample was transferred to one well of a round bottom 96 well plate and analyzed on a BD LSRFortessa X-20 device. FACS data were analyzed using BD FACSDiva software.

CD8+ T-cells = assay: LSC/T-cell reaction assay; assay type: cell-based, human; details: B2M/HLA-Class I negative LSCs co-cultured 10 days with CD8+ T-cells from 4 donors
Method: An LSC/T-cell assay was performed in flat bottom 96well synthemax coated plates in duplicates and incubated in 5% CO2 at 37° C. for 10 days. RPMI-1640 supplemented with HEPES (100 µM), non-essential aas (10x), sodium pyruvate (10 mM), 2-Mercapthoethanol (10x), 10% FBS and 1% Penicillin-Streptomycin (Gibco by Life Technologies) was used as medium for co-culture. Alternatively, RPMI-1640 supplemented with HEPES (10 mM), non-essential aas (1x), sodium pyruvate (1 mM), 2-Mercapthoethanol (1x), 10% FBS and 1% Penicillin-Streptomycin (Gibco by Life Technologies) was used as medium for co-culture.
One day before co-culture, LSCs (stimulator cells) were passed and cultured to a confluency of around 70% (30′000 - 50′000 cells) and cultured with LSC medium including compound. On day two, peripheral blood mononuclear cells (PBMC) were separated using EDTA blood with the Ficoll-Paque method (GE Healthcare Life Sciences, cat #17-1440-03). […]
After 10 days, CD8+ cells were transferred to a U-bottomed 96-well plate and washed 3 times using autoMAC rinsing solution (Miltenyi Biotec, Cat #130-091-222) including MACS BSA stock solution (Miltenyi Biotec, Cat #130-091-376). Cells were measured on a BD LSRFortessa X-20. FACS data were analyzed using BD FACSDiva software and FlowJo software.

B1: 1-CR004366: gRNA targeting human B2M; targeting domain SEQ ID NO: 108; sgRNA SEQ ID NO: 120; from Dharmacon (nucleic acid)
guide: GAGUAGCGCGAGCACAGCUAGUUUUAGAGCUAGAAAUAGCAAGUUAAAAUAAGGCUAGUCCGUUAUCAACUUGAAAAAGUGGCACCGAGUCGGUGCUUUU
modifications: listed as RNA, chemistry not given here
notes: gRNA targeting human B2M; from Dharmacon
B2M knockout efficiency in LSCs after nucleofection (B2M): 55% | B2M knockout efficiency in HEK293 (human B2M): 70% | T-cell immune response in co-culture with gene edited LSCs (CD8+ T-cells): almost completely eliminated

Reference: patent US20230348852A1, “METHODS AND COMPOSITIONS FOR OCULAR CELL THERAPY” (NOVARTIS AG, priority 2020, published 2023)
